Results taken from IntAct's records for PubMed 34591612.

target: brca1_human BRCA1 (UniProt P38398)
Sequence (P38398 whole entry, looked up): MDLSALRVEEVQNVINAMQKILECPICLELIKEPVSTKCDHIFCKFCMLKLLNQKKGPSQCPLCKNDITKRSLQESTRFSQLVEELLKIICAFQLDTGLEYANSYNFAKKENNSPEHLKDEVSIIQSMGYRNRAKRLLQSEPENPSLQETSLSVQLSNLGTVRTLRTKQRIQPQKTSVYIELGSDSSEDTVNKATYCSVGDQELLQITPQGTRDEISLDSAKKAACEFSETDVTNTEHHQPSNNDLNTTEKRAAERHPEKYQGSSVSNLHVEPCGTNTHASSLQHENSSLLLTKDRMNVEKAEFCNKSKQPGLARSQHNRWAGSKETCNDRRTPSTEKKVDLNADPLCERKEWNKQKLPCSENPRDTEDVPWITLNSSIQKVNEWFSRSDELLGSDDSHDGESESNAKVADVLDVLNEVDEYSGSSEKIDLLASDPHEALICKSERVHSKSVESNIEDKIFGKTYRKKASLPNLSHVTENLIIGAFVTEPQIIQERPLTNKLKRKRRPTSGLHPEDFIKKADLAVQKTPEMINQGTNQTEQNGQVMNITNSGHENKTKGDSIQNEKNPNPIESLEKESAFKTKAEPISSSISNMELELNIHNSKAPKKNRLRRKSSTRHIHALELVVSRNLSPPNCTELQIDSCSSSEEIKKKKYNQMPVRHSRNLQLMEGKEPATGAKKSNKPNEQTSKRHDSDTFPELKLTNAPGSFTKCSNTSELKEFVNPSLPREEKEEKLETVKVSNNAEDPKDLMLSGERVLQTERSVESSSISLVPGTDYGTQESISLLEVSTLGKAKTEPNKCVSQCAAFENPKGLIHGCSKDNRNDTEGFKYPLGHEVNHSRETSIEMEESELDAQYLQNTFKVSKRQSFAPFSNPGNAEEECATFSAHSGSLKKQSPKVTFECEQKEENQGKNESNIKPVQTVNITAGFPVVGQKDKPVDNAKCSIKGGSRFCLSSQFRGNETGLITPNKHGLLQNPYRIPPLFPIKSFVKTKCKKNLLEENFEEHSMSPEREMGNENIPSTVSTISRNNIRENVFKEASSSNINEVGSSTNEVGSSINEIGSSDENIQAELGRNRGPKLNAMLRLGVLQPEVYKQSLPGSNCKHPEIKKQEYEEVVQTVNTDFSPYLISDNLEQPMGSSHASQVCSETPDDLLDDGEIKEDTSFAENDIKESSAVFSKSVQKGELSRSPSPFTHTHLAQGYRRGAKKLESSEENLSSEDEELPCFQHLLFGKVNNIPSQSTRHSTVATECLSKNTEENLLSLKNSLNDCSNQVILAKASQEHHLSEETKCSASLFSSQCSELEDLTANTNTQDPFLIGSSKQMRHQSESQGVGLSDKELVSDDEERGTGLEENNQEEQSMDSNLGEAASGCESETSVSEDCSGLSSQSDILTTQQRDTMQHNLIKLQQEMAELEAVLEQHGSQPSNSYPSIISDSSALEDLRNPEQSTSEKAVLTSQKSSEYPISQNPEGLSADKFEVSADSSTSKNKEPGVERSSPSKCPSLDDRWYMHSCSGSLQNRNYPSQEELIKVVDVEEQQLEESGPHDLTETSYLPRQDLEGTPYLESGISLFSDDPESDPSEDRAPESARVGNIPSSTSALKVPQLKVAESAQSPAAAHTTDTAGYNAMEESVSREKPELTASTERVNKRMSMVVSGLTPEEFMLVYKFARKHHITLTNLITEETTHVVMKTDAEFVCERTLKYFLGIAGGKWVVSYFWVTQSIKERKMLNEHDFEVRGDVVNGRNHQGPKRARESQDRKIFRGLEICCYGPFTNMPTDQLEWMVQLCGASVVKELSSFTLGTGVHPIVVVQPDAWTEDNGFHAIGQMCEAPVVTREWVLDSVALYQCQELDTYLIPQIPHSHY

Neurabin-2 (Homo sapiens), Q96SB3 F451A, sequence (Q96SB3 whole entry F451A): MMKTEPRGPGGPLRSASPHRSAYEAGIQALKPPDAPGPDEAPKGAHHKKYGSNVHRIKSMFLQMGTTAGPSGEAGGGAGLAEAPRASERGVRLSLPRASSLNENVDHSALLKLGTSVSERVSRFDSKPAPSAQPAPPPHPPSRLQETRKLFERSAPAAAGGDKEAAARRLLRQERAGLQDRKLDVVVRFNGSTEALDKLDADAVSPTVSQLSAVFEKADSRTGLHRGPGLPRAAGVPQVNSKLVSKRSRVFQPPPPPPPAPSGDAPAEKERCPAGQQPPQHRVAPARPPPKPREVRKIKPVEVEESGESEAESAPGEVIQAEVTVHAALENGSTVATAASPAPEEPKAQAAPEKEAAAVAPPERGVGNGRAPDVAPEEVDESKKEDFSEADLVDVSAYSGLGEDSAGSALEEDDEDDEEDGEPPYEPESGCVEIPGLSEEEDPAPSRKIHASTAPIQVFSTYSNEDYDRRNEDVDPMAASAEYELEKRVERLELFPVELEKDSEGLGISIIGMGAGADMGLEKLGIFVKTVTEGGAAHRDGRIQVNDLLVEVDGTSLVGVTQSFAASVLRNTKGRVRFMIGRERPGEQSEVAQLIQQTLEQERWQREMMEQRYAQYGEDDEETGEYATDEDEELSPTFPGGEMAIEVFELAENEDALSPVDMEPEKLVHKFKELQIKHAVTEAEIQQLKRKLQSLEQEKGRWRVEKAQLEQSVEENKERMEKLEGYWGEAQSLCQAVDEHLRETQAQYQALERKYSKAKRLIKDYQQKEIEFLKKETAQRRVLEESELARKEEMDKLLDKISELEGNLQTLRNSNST

effect of a mutation on the interaction	Substance
increasing interaction	Neurabin-2 (Homo sapiens), Q96SB3 F451A
disrupting interaction	Neurabin-2 (Homo sapiens), Q96SB3 S635A
increasing interaction	Neurabin-2 (Homo sapiens), Q96SB3 S248A
decreasing interaction	Neurabin-2 (Homo sapiens), Q96SB3 S212A
